Data reported in patent US9593305B2, “Differentiation of pluripotent stem cells” (Janssen Biotech, Inc., priority 2008, dated 2017).

Experiments:
[1] = test system: H1 human embryonic stem cells; assay: Definitive endoderm formation with TGF superfamily members, SOX17 and cell number (Example 14); assay type: cell-based; conditions: dose titration with Wnt3a, Compound 34, or both
Description: Clusters were centrifuged at low speed to collect a cell pellet and remove residual dispase. […] All human embryonic stem cell lines were maintained at passage numbers less than 50 and routinely evaluated for normal karyotype and absence of mycoplasma.
Cells were washed again three times with PBS and blocked with 4% chicken serum (Invitrogen; Cat #16110082) in PBS for 30 minutes at room temperature. […] Plates were washed once with PBS and left in 100 μl/well PBS for imaging.

[2] = test system: H1 human embryonic stem cells; assay: Definitive endoderm formation with GDF family members, SOX17 and cell number (Example 13); assay type: cell-based; conditions: 100 ng/ml GDF, alone or with Wnt3a, Compound 34 or Compound 56, four days
Description: Stock cultures of human embryonic stem cells (H1 human embryonic stem cell line) were maintained in an undifferentiated, pluripotent state on reduced growth factor […]™ (BD Biosciences; Cat #356231)-coated dishes in MEF conditioned medium with passage on average every four days. Passage was performed by exposing cell cultures to a solution of 1 mg/ml dispase (Invitrogen; Cat #17105-041) for 5 to 7 minutes at 37° C. followed by rinsing the monolayer with MEF conditioned culture medium and gentle scraping to recover cell clusters. Clusters were centrifuged at low speed to collect a cell pellet and remove residual dispase. Cell clusters were split at a 1:3 or 1:4 ratio for routine maintenance culture or a 1:1 ratio for immediate assay. All human ES cell lines were maintained at passage numbers less than 50 and routinely evaluated for normal karyotype and absence of mycoplasma.
Cell clusters were evenly resuspended in MEF conditioned medium supplemented with 8 ng/ml bFGF and seeded onto reduced growth factor […]™-coated 96-well Packard VIEWPLATES (PerkinElmer; Cat #6005182) in volumes of 0.1 ml/well. Daily feeding was conducted by aspirating spent culture medium from each well and replacing with an equal volume of fresh medium. Plates were maintained at 37° C., 5% CO2 throughout the duration of assay.
The assay was initiated by aspirating the culture medium from each well and adding back aliquots (100 μl) of test medium. Test conditions were performed in triplicate over a total four-day assay period, feeding on day 1 and day 3 by aspirating and replacing the medium from each well with fresh test medium. Various members of the GDF family of proteins were obtained for testing as follows: GDF-3 (PeproTech; Cat #120-22); GDF-5 (DePuy Orthopaedics, Inc., a Johnson & Johnson company); GDF-8 (R&D Systems; Cat #788-G8); GDF-10 (R&D Systems; Cat #1543-BP); GDF11 (PeproTech; Cat #120-11); GDF-15 (R&D Systems; Cat #957-GD). On the first day of assay, all wells received an aliquot (80 μl) of basal medium DMEM:F12 medium (Invitrogen; Cat #11330-032) supplemented with 0.5% fetal bovine serum (Hyclone; Cat #SH30070.03). A series of five different control or experimental test samples was created to evaluate activin A or various GDFs in combination with Wnt3a or Compound 34 or Compound 56. These test samples were added in 20 μl aliquots (5× concentrated) to appropriately matched assay wells to yield a final assay volume of 100 μl in each well at the final assay conditions indicated. In the first set of control samples, the following conditions were tested: 1) no additive (i.e. no supplementary growth factor or small molecule); 2) 100 ng/ml activin A (PeproTech; Cat #120-14) in combination with 20 ng/ml Wnt3a (R&D Systems; Cat #1324-WN/CF); 3) 20 ng/ml Wnt3a alone; 4) Compound 34 alone (2.5 μM) without any growth factor or small molecule; 5) Compound 56 alone (2.5 μM) without any growth factor or small molecule. In the second set of test samples, the following conditions were tested in combination with 100 ng/ml GDF3: 1) no additive (i.e. GDF-3 alone); 2) 20 ng/ml Wnt3a; 3) 20 ng/ml Wnt3a with Compound 34 (2.5 μM); 4) Compound 34 (2.5 μM); 5) Compound 56 (2.5 μM); and 6) 20 ng/ml Wnt3a with Compound 56 (2.5 μM). In the third set of test samples, each of the six conditions was combined with 100 ng/ml GDF-5. In the fourth set of test samples, each of the six conditions was combined with 100 ng/ml GDF-8. In the fifth set of test samples, each of the six conditions was combined with 100 ng/ml GDF-10. In the sixth set of test samples, each of the six conditions was combined with 100 ng/ml GDF-11. In the seventh set of test samples, each of the six conditions was combined with 100 ng/ml GDF-15. On the third day of assay, all wells for all test samples, received 100 ng/ml Activin A or 100 ng/ml respective GDF growth factor, without Wnt3a or Compound 34 or Compound 56, diluted into DMEM:F12 medium supplemented with 2% FBS. […]

Molecule	induction of SOX17 expression compared to the Wnt3a treatment alone [1]	SOX17 expression, GDF growth factor substituting for activin A [2]
TGFβ-1: TGF superfamily growth factor, R&D Systems	weak or negligible	–
GDF15: member of the GDF family of proteins (R&D Systems) (protein, UniProt Q99988 195-308, looked up) Growth/differentiation factor …: ARARNGDHCPLGPGRCCRLHTVRASLEDLGWADWVLSPREVQVTMCIGACPSQFRAANMHAQIKTSLHRLKPDTVPAPCCVPASYNPMVLIQKTDTGVSLQTYDDLLAKDCHCI	–	induced significant levels of SOX17 expression
GDF-5: member of the GDF family of proteins (DePuy Orthopaedics) (protein, UniProt P43026 382-501, looked up) Growth/differentiation factor …: APLATRQGKRPSKNLKARCSRKALHVNFKDMGWDDWIIAPLEYEAFHCEGLCEFPLRSHLEPTNHAVIQTLMNSMDPESTPPTCCVPTRLSPISILFIDSANNVVYKQYEDMVVESCGCR	–	induced weak expression of SOX17
BMP3: growth factor protein, R&D Systems (protein, UniProt P12645 363-472, looked up) Bone morphogenetic protein 3: QWIEPRNCARRYLKVDFADIGWSEWIISPKSFDAYYCSGACQFPMPKSLKPSNHATIQSIVRAVGVVPGIPEPCCVPEKMSSLSILFFDENKNVVLKVYPNMTVESCACR	weak or negligible	–
GDF10: member of the GDF family of proteins (R&D Systems) (protein, UniProt P55107 369-478, looked up) Growth/differentiation factor …: QWDEPRVCSRRYLKVDFADIGWNEWIISPKSFDAYYCAGACEFPMPKIVRPSNHATIQSIVRAVGIIPGIPEPCCVPDKMNSLGVLFLDENRNVVLKVYPNMSVDTCACR	–	induced significant levels of SOX17 expression
GDF11: member of the GDF family of proteins (PeproTech) (protein, UniProt O95390 299-407, looked up) Growth/differentiation factor …: NLGLDCDEHSSESRCCRYPLTVDFEAFGWDWIIAPKRYKANYCSGQCEYMFMQKYPHTHLVQQANPRGSAGPCCTPTKMSPINMLYFNDKQQIIYGKIPGMVVDRCGCS	–	induced significant levels of SOX17 expression
